Results published in patent publication US20250295772A1 (ABATA THERAPEUTICS, published 2025).

T1: preproinsulin 73-90 peptide complexed with HLA-DRB1*04:01 (human, UniProt P01903 26-254; P01911 30-266)
T1 MHC II alpha: not shown
T1 MHC II beta: not shown
T1 peptide: GAGSLQPLALEGSLQKRG


Target: T1, preproinsulin 73-90 peptide complexed …
Experiment: cell-based or functional assay

Binder	EC50 (nM) of CD69 upregulation, conventional CD4+ T cells + BLS-DRB1*04:01 cells, peptide titrated [nM]
TCR-H (TCR) TCR alpha: EDQVTQSPEALRLQEGESSSLNCSYTVSGLRGLFWYRQDPGKGPEFLFTLYSAGEEKEKERLKATLTKKESFLHITAPKPEDSATYLCAVQLSDSNYKLTFGKGTLLTVNPNIQNPDPAVYQLRDSKSSDKSVCLFTDFDSQTNVSQSKDSDVYITDKTVLDMRSMDFKSNSAVAWSNKSDFACANAFNNSIIPEDTFFPSPESSCDVKLVEKSFETDTNLNFQNLSVIGFRILLLKVAGFNLLMTLRLWSS TCR beta: NAGVTQTPKFQVLKTGQSMTLQCAQDMNHNSMYWYRQDPGMGLRLIYYSASEGTTDKGEVPNGYNVSRLNKREFSLRLESAAPSQTSVYFCASRGQVNEKLFFGSGTQLSVLEDLNKVFPPEVAVFEPSEAEISHTQKATLVCLATGFFPDHVELSWWVNGKEVHSGVSTDPQPLKEQPALNDSRYCLSSRLRVSATFWQNPRNHFRCQVQFYGLSENDEWTQDRAKPVTQIVSAEAWGRADCGFTSVSYQQGVLSATILYEILLGKATLYAVLVSALVLMAMVKRKDF	0.93
TCR-H DS (TCR) TCR alpha: EDQVTQSPEALRLQEGESSSLNCSYTVSGLRGLFWYRQDPGKGPEFLFTLYSAGEEKEKERLKATLTKKESFLHITAPKPEDSATYLCAVQLSDSNYKLTFGKGTLLTVNPNIQNPDPAVYQLRDSKSSDKSVCLFTDFDSQTNVSQSKDSDVYITDKCVLDMRSMDFKSNSAVAWSNKSDFACANAFNNSIIPEDTFFPSPESSCDVKLVEKSFETDTNLNFQNLSVIGFRILLLKVAGFNLLMTLRLWSS TCR beta: NAGVTQTPKFQVLKTGQSMTLQCAQDMNHNSMYWYRQDPGMGLRLIYYSASEGTTDKGEVPNGYNVSRLNKREFSLRLESAAPSQTSVYFCASRGQVNEKLFFGSGTQLSVLEDLNKVFPPEVAVFEPSEAEISHTQKATLVCLATGFFPDHVELSWWVNGKEVHSGVCTDPQPLKEQPALNDSRYCLSSRLRVSATFWQNPRNHFRCQVQFYGLSENDEWTQDRAKPVTQIVSAEAWGRADCGFTSVSYQQGVLSATILYEILLGKATLYAVLVSALVLMAMVKRKDF	0.62
TCR-G (TCR) TCR alpha: QKEVEQNSGPLSVPEGAIASLNCTYSDRGSQSFFWYRQYSGKSPELIMFIYSNGDKEDGRFTAQLNKASQYVSLLIRDSQPSDSATYLCAVIYSSASKIIFGSGTRLSIRPNIQNPDPAVYQLRDSKSSDKSVCLFTDFDSQTNVSQSKDSDVYITDKTVLDMRSMDFKSNSAVAWSNKSDFACANAFNNSIIPEDTFFPSPESSCDVKLVEKSFETDTNLNFQNLSVIGFRILLLKVAGFNLLMTLRLWSS TCR beta: SQTIHQWPATLVQPVGSPLSLECTVEGTSNPNLYWYRQAAGRGLQLLFYSVGIGQISSEVPQNLSASRPQDRQFILSSKKLLLSDSGFYLCAWSVQRLGRGGETQYFGPGTRLLVLEDLKNVFPPEVAVFEPSEAEISHTQKATLVCLATGFYPDHVELSWWVNGKEVHSGVSTDPQPLKEQPALNDSRYCLSSRLRVSATFWQNPRNHFRCQVQFYGLSENDEWTQDRAKPVTQIVSAEAWGRADCGFTSESYQQGVLSATILYEILLGKATLYAVLVSALVLMAMVKRKDSRG	11.2
TCR-G DS (TCR) TCR alpha: QKEVEQNSGPLSVPEGAIASLNCTYSDRGSQSFFWYRQYSGKSPELIMFIYSNGDKEDGRFTAQLNKASQYVSLLIRDSQPSDSATYLCAVIYSSASKIIFGSGTRLSIRPNIQNPDPAVYQLRDSKSSDKSVCLFTDFDSQTNVSQSKDSDVYITDKCVLDMRSMDFKSNSAVAWSNKSDFACANAFNNSIIPEDTFFPSPESSCDVKLVEKSFETDTNLNFQNLSVIGFRILLLKVAGFNLLMTLRLWSS TCR beta: SQTIHQWPATLVQPVGSPLSLECTVEGTSNPNLYWYRQAAGRGLQLLFYSVGIGQISSEVPQNLSASRPQDRQFILSSKKLLLSDSGFYLCAWSVQRLGRGGETQYFGPGTRLLVLEDLKNVFPPEVAVFEPSEAEISHTQKATLVCLATGFYPDHVELSWWVNGKEVHSGVCTDPQPLKEQPALNDSRYCLSSRLRVSATFWQNPRNHFRCQVQFYGLSENDEWTQDRAKPVTQIVSAEAWGRADCGFTSESYQQGVLSATILYEILLGKATLYAVLVSALVLMAMVKRKDSRG	1.89
